# Test results taken from US20240133870A1, “COMBINED TREATMENT FOR CANCER” (Yeda Research and Development Co. Ltd., priority 2021, published 2024).
# B1: interferon gamma: anti-proliferative secreted factor (protein, UniProt P01579 24-161, looked up)
# Interferon gamma: QDPYVKEAENLKKYFNAGHSDVADNGTLFLGILKNWKEESDRKIMQSQIVSFYFKLFKNFKDDQSIQKSVETIKEDMNVKFFNSNKKKRDDFEKLTNYSVTDLNVQRKAIHELIQVMAELSPAAKTGKRKRSQMLFRG
# B2: FGF10: fibroblast growth factor 10, ligand of FGFR2IIIb (protein, UniProt O15520 38-208, looked up)
# Fibroblast growth factor 10: QALGQDMVSPEATNSSSSSFSSPSSAGRHVRSYNHLQGDVRWRKLFSFTKYFLKIEKNGKVSGTKKENCPYSILEITSVEIGVVAVKAINSNYYLAMNKKGKLYGSKEFNNDCKLKERIEENGYNTYASFNWQHNGRQMYVALNGKGAPRRGQKTRRKNTSAHFLPMVVHS
# B3: BTC: EGFR ligand beta-cellulin (protein, UniProt P35070 32-111, looked up)
# Betacellulin: DGNSTRSPETNGLLCGDPEENCAATTTQSKRKGHFSRCPKQYKHYCIKGRCRFVVAEQTPSCVCDEGYIGARCERVDLFY
# B4: AIMP1: aminoacyl tRNA synthetase complex interacting multifunctional protein 1 (protein, UniProt Q12904 2-312, looked up)
# Aminoacyl tRNA synthase …: ANNDAVLKRLEQKGAEADQIIEYLKQQVSLLKEKAILQATLREEKKLRVENAKLKKEIEELKQELIQAEIQNGVKQIPFPSGTPLHANSMVSENVIQSTAVTTVSSGTKEQIKGGTGDEKKAKEKIEKKGEKKEKKQQSIAGSADSKPIDVSRLDLRIGCIITARKHPDADSLYVEEVDVGEIAPRTVVSGLVNHVPLEQMQNRMVILLCNLKPAKMRGVLSQAMVMCASSPEKIEILAPPNGSVPGDRITFDAFPGEPDKELNPKKKIWEQIQPDLHTNDECVATYKGVPFEVKGKGVCRAQTMSNSGIK
# B5: FGF7: fibroblast growth factor 7, ligand of FGFR2IIIb (protein, UniProt P21781 32-194, looked up)
# Fibroblast growth factor 7: CNDMTPEQMATNVNCSSPERHTRSYDYMEGGDIRVRRLFCRTQWYLRIDKRGKVKGTQEMKNNYNIMEIRTVAVGIVAIKGVESEFYLAMNKEGKLYAKKECNEDCNFKELILENHYNTYASAKWTHNGGEMFVALNQKGIPVRGKKTKKEQKTAHFLPMAIT
# Assays:
# Assay type in all cases: cell-based, human
# [1] = test system: GFP-labeled cancer cell lines; assay: Effect of secreted factors on proliferation under DMSO (pScore); settings: DMSO control experiments
# Description: FIGS. 8A-D show schematic overviews of rScore and bScore calculation. Calculation of rScore and bScore is derived from the data points A, B, C, D marked on GFP-level curves of cells under different treatment conditions, as shown in FIGS. 8A-B. As all cells used in the screen are constitutively expressing GFP, GFP level was used as a proxy for the number of cells. […] Proliferation score (pScore) describes the percent of change in the number of cells after seven days of treatment with a given factor. Rescue score (rScore) quantifies the effect of a given factor on the resistance to a given drug. Relative rescue describes the proportion of cells treated with drug+factor out of untreated cells. The higher this ratio, the stronger effect the factor has on drug resistance. Residual drug growth describes the proportion of cells growth under drug relative to no treatment condition. […] Finally, the rescue score (rScore) is the relative rescue after adding a penalty for drugs with low efficacy. […] Bliss Score (bScore) quantifies the extent of synergism between a given factor and a given drug. Factor effect describes the proportion (or probability) of cells killed by the factor. Drug effect describes the proportion (or probability) of cells killed by the drug. The observed killing effect (observed effect) describes the proportion (or probability) of cells killed by both factor and drug. Assuming drug killing and factor killing are independent events, the expected killing effect (expected effect) is the sum of probabilities D and F excluding events intersection (D*F), which represents a subpopulation of cells that may be sensitive to both the drug and factor. Finally, bliss score (bScore) is the delta between observed and expected killing multiplied by −1 to symbolize the expected decrease in the number of cancer cells following the addition of a factor. […] Upper panel—effect on cells proliferation. […] The number of experiments (out of 79) with pro-proliferative effect (pScore>30%) and anti-proliferative effect (pScore<−30%) were counted for each factor in the secretome library. […]
# [2] = test system: BRAF (V600E) melanoma cell lines; assay: High-throughput secretome screen of GFP-labeled cells (rScore, bScore, ranks); settings: melanoma cell lines bearing BRAF (V600E); BRAF/MEK inhibitors
# Protocol: (§1) Cell lines—All cell lines (Table 1 hereinbelow) were cultured in DMEM supplemented with 100 units/ml Penicillin and Streptomycin, 2 μmM Glutamine, 1 μmM Pyruvate and 10% FCS, and maintained in a humidified incubator at 37° C. and 5% CO2. Cells were routinely tested for Mycoplasma contamination by PCR. To generate stable cell lines constitutively expressing GFP, cells were infected with lentivirus bearing plasmid pLEX_TRC206 and sorted by FACS to enrich for GFP positive population. For the in-vitro experiments, human cancer cell lines which constitutively expressed GFP were treated with various cytotoxic and targeted drugs (see Table 1 hereinbelow); and the effect of different secreted factors (Table 2 hereinbelow) on the innate resistance to a drug based on the cells' GFP level was determined.
# (§2) High throughput in-vitro screens—For high-throughput screens or drug dose curves, cells were counted by Vi-Cell XR (Beckman coulter). Cells were seeded on 384 wells plates (Corning, 3712) using the EL406 washer dispenser (BioTek). Liquid handling of medium and drugs was effected by CyBi (WellFlex vario, CyBio). GFP fluorescence of cells was measured at 477/517 nm (excitation/emission) using Cytation3 (BioTek). Due to fluorescence reading bias at plate margins and corners, these margins were discarded for analysis.
# High-throughput secretome screens—To screen for the effect of secreted factors on the response of cell lines to different drugs, the following seven-days procedure was performed. On day 0, GFP expressing cells were seeded at 1500-2000 cells per well on 384-wells plates (Corning, 3712), depending on the cell line's proliferation rate. Each plate was seeded with one cell line. At day 1, each plate was treated with the secretome library (Table 2 hereinabove), one well per factor. Immediately afterwards, each plate was treated either with a drug (Table 1 hereinabove) at the EC90 concentration or with DMSO control. The CyBi liquid handler was used to treat each plate with a drug and the secretome library as well as to replace the medium, drug and secreted factors following 3 days of incubation (day 4). Cell fluorescence was read at days 1, 4 and 7 by Cytation3, and for some of the experiments at day 6 as well. Wells of interest were imaged at day 7 using the Operetta (PerkinElmer).
# (2) Based on observations, the plate area spanning rows 4-13 and columns 4-21 was hardly affected by plate margins biases. This area is referred to herein as plate core. To control for row specific and column specific biases, plate outliers (Zscore>4 or Zscore<−4) and edges were masked. Next, to capture row and column (col) biases for the i-th row and the j-th column, the bias factor was calculated:
# Upon QC completion, 199 experiment plates and 79 control (DMSO) plates were left for further analysis. • 4—Scoring methods-A GFP value for wells without secretome factors was obtained by averaging over the plate internal control wells. Those wells contained the solvents used in the secretome library. pScore: The effect of the secreted factors on proliferation under DMSO was evaluated using pScore (proliferation score). Values were given in percent units.
# rScore: The effect of the secreted factors on resistance to anti-cancer drugs was evaluated using rScore (rescue score). rScore was assigned to a given factor under two conditions: • 1. drug effect was >30% (residual drug growth<0.7) • 2. proliferation ratio between factor treated and untreated cells in the presence of drug was higher than one:
# rSscore=S−S*residual drug growth
# Based on manual inspection of the rScore distribution across the data, the threshold for a potential effect on drug resistance was set to 0.2 (FIGS. 8A-D).
# (*) Negative values were considered as zero. […] Groups with less than 4 experiments were discarded, finally resulting in 13 groups of experiments (FIG. 1E). […]
# [3] = test system: BRAF (V600E) colorectal cancer cell lines; assay: High-throughput secretome screen of GFP-labeled cells (rScore); settings: colorectal cell lines bearing BRAF (V600E); BRAF/MEK inhibitors
# Protocol: as §1, §2
# High-throughput secretome screens—To screen for the effect of secreted factors on the response of cell lines to different drugs, the following seven-days procedure was performed. On day 0, GFP expressing cells were seeded at 1500-2000 cells per well on 384-wells plates (Corning, 3712), depending on the cell line's proliferation rate. Each plate was seeded with one cell line. […] Cell fluorescence was read at days 1, 4 and 7 by Cytation3, and for some of the experiments at day 6 as well. […]
# (2) Based on observations, the plate area spanning rows 4-13 and columns 4-21 was hardly affected by plate margins biases. […] Next, to capture row and column (col) biases for the i-th row and the j-th column, the bias factor was calculated: […]
# pERK in G361 cell line = assay: In-cell western blot of pERK; settings: G361 cells treated with the BRAF inhibitor (vemurafenib 2 μM and trametinib 1 nM)
# Protocol: PLX4720—BRAFi, 2 μM; PD184352—MEKi, 1 μM, EMAPII—50 ng/ml. P-value of the difference between GFP(drug)/GFP(no-treatment) and GFP(drug+EMAPII)/GFP(no-treatment), at day 7, was calculated by two-sided t-test. ** p<0.01, *** p<0.001. Average rScore (+/−SE) was calculated from at least four different experiments. […] A total of 69 experiments are shown. […] The effect of FGF2 (10 ng/ml), EMAPII (10 ng/ml) or AIMP1 (10 ng/ml) on G361 μmelanoma cells treated with vemurafenib (2 μM) was measured with or without the FGFR inhibitor PD17307 (0.5 μM). Data represent an average of 4 to 8 experiments. P-value was calculated by two-sided t-test. *** p<0.001. Error bars represent standard error. […] P-values were calculated by two-sided t-test relative to luciferase. * p<0.05, Q-value=0.1. […] P-value was calculated by two-sided t-test. *** p<0.001.
# In-cell western blot—To validate that EMAPII mediates its effect on resistance to BRAF inhibition via the FGF receptors (FIG. 2G), the melanoma BRAF mutated cell line G361 was seeded in a 384-wells plate at a concentration of 16,000 cells per well. […] Finally, the plate was scanned with Odyssey (Li-cor) using microplate settings (169 μm, […]), and fluorescence intensity was quantified and normalized to the DRAQ level, and then to no drug control (DMSO).
Molecule,effect on proliferation (pScore) [1],effect on drug resistance [3],other results
insulin: pro-proliferative secreted factor,pro-proliferative,,
neuregulin-1,pro-proliferative,,
B1,anti-proliferative,,
B2,,could confer drug resistance to colorectal cancers,effect on drug resistance [2]: much smaller effect on melanoma cell lines
B3,,mediate resistance only to the colorectal cell lines,
B4,,,pERK reactivation (pERK in G361 cell line): partially reactivate pERK
B5,,could confer drug resistance to colorectal cancers,effect on drug resistance [2]: much smaller effect on melanoma cell lines
